The supplement of paper PMC7877785
± gives the uncertainty stated by the source.

Test: self-splicing fitness, log relative to wild type (ln ratio); higher = more splicing; Tetrahymena group I intron in knt gene, E. coli kanamycin selection, DiMSum; sequences stand for … in CUCUCU…GGAGGGAAAAGUUAUCAGGCAUGCACCUGGUAGCUAGUCUUUAAACCAAUAGAUUGCAUCGGUUUAAAAGGCAAGACCGUCAAAUUGCGGGAAAGGGGUCAACAGCCGUUCAGUACCAAGUCUCAGGGGAAACUUUGAGAUGGCCUUGCAAAGGGUAUGGUAAUAAGCUGACGGACAUGGUCCUAACCACGCAGCCAAGUCCUAAGUCAACAGAUCUUCUGUUGAUAUGGAUGCAGUUCACAGACUAAAUGUCGGUCGGGGAAGAUGUAUUCUUCUCAUAAGAUAUAGUCGGACCUCUCCUUAAUGGGAGCUAGCGGAUGAAGUGAUGCAACACUGGAGCCGCUGGGAACUAAUUUGUAUGCGAAAGUAUAUUGAUUAGUUUUGGAGUACUCGUGGUCG
Summary of the method: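 A randomised library covering all eight P1ex-region intron nucleotides was built with the intron in the knt kanamycin-resistance gene on pET-22b(+) and held in E. coli BL21(DE3). Cells were grown overnight at 37°C or 30°C on LB agar, with or without 25 μg/mL kanamycin, plus 100 μg/mL carbenicillin, 50 μM IPTG and 0.2% rhamnose, and pooled colonies were amplicon-sequenced on an Illumina HiSeq 2500. DiMSum fitness is the error-weighted combination of wild-type-normalised replicate fold changes, kanamycin versus none.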

Row | Sequence | self-splicing fitness (ln) (30 °C) | self-splicing fitness (ln) (37 °C)
1 | CAGCAGCAAUAUUACGGUAU | -3.51 ± 0.15 | -2.62 ± 0.13
2 | GUGUAGCAAUAUUACGGGAC | -3.44 ± 0.32 | -2.03 ± 0.28
3 | CGAGAGCAAUAUUACGACGU | -2.81 ± 0.22 | -3.04 ± 0.43
4 | CCACAGCAAUAUUACGGGAA | -3.4 ± 0.15 | -3.01 ± 0.2
5 | CUAAAGCAAUAUUACGACCG | 0.565 ± 0.087 | 0.104 ± 0.11
6 | GUGGAGCAAUAUUACGCUGG | -3.52 ± 0.37 | -2.41 ± 0.33
7 | GAUGAGCAAUAUUACGAUGC | -1.35 ± 0.086 | -0.41 ± 0.12
8 | AUUGAGCAAUAUUACGCGAA | -3.61 ± 0.37 | -1.28 ± 0.26
9 | AGCAAGCAAUAUUACGAAUC | -4.48 ± 0.42 | -1.81 ± 0.2
10 | AAUAAGCAAUAUUACGGCAU | 0.0296 ± 0.085 | -0.0272 ± 0.097
11 | UUGAAGCAAUAUUACGCCCA | 0.429 ± 0.12 | 0.296 ± 0.16
12 | AACGAGCAAUAUUACGUAAU | -3.78 ± 0.15 | -1.75 ± 0.12
13 | UUACAGCAAUAUUACGCACA | -0.783 ± 0.12 | 0.168 ± 0.12
14 | CCUAAGCAAUAUUACGGGAG | -4.51 ± 0.24 | -2.93 ± 0.21
15 | GAUUAGCAAUAUUACGCUAA | -3.24 ± 0.39 | -1.89 ± 0.35
16 | GUAAAGCAAUAUUACGUUAG | -1.01 ± 0.057 | -0.896 ± 0.076
17 | ACGAAGCAAUAUUACGGCCG | -0.664 ± 0.19 | 0.746 ± 0.29
18 | GCUAAGCAAUAUUACGUGUU | -1.78 ± 0.072 | -0.774 ± 0.093
19 | UCGAAGCAAUAUUACGGGUC | -4.14 ± 0.33 | -2.54 ± 0.44
20 | CAGCAGCAAUAUUACGGGUA | -3.24 ± 0.19 | -1.73 ± 0.13
21 | AUACAGCAAUAUUACGUUCG | -1.69 ± 0.071 | -1.15 ± 0.093
22 | AGGUAGCAAUAUUACGCUAG | -4.002 ± 0.038 | -2.89 ± 0.046
23 | CUGGAGCAAUAUUACGAGGC | -2.02 ± 0.4 | -0.672 ± 0.47
24 | GUAUAGCAAUAUUACGGCAG | -4.25 ± 0.42 | -1.5 ± 0.25

Row | Sequence | self-splicing fitness (ln) (30 °C) | self-splicing fitness (ln) (37 °C)
25 | GGGCAGCAAUAUUACGUGAC | -0.997 ± 0.13 | -1.03 ± 0.21
26 | CAUUAGCAAUAUUACGAGGC | – | -1.85 ± 0.33
27 | UAAUAGCAAUAUUACGCGCU | 0.173 ± 0.2 | -0.565 ± 0.18
28 | CACAAGCAAUAUUACGGGGC | -3.54 ± 0.17 | -2.54 ± 0.18
29 | GUCCAGCAAUAUUACGAUGG | -3.74 ± 0.16 | -3.37 ± 0.25
30 | CCAUAGCAAUAUUACGCGUC | -3.04 ± 0.33 | -4.21 ± 0.46
31 | UUCCAGCAAUAUUACGUGGU | -3.26 ± 0.17 | -2.08 ± 0.14
32 | GUGGAGCAAUAUUACGUGUC | -3.84 ± 0.22 | -2.64 ± 0.24
33 | GAGCAGCAAUAUUACGCGCU | -3.19 ± 0.38 | -1.9 ± 0.36
34 | UGCUAGCAAUAUUACGGGGC | -3.59 ± 0.29 | -2.69 ± 0.25
35 | GACAAGCAAUAUUACGAGGU | -3.51 ± 0.15 | -2.92 ± 0.16
36 | CCGAAGCAAUAUUACGAUGU | -3.33 ± 0.27 | -1.86 ± 0.15
37 | GUCUAGCAAUAUUACGGUUU | -1.42 ± 0.077 | -0.192 ± 0.095
38 | UUAUAGCAAUAUUACGGUAG | -1.38 ± 0.14 | -0.483 ± 0.14
39 | CUUGAGCAAUAUUACGUUCU | -2.75 ± 0.41 | -3.71 ± 0.42
40 | UGGAAGCAAUAUUACGUAUU | -3.06 ± 0.23 | -3.09 ± 0.33
41 | AGCGAGCAAUAUUACGCCCA | -2.07 ± 0.39 | -1.52 ± 0.34
42 | UGCUAGCAAUAUUACGCCAU | -3.15 ± 0.28 | -2.65 ± 0.35
43 | CUUCAGCAAUAUUACGAGGG | -3.48 ± 0.22 | -2.31 ± 0.22
44 | CGCCAGCAAUAUUACGGGGU | -3.35 ± 0.15 | -2.36 ± 0.17
45 | CAUUAGCAAUAUUACGUUCG | 0.151 ± 0.084 | 0.359 ± 0.093
46 | CACGAGCAAUAUUACGAGAG | -3.14 ± 0.15 | -2.18 ± 0.18
47 | CCGAAGCAAUAUUACGCGCG | -1.23 ± 0.11 | 0.0615 ± 0.12
